# Laboratory results published in publication PMC3969221.
# Experiments:
# [1] = target: Manduca sexta cadherin protein fragment (CR7–CR12) (Manduca sexta); test: ELISA; 1 μg of cadherin fragment coated per well; toxin or protoxin dilutions in PBS, 1 h at 37°C; detected with polyclonal anti-Cry1Ab antibody; Scatchard analysis; apparent Kd
# [2] = target: trypsin-activated Cry1AbMod toxin (Bacillus thuringiensis) (UniProt P0A370)
Substance,Kd [1] [nM],"LC50 (50% lethal concentration) against M. sexta neonatal larvae, mortality after 7 days [2] [ng/cm^2]"
Cry1Ab protoxin (from UniProt P0A370 1-1155) (natural protein),6.8,–
trypsin-activated Cry1AbMod toxin (from UniProt P0A370 1-1155) (domain or fragment),–,15
